Tests used:
[1] = target: GlyR-α3L-eGFP (glycine receptor α3, long splice variant L, N-terminally tagged with eGFP) (mouse) (UniProt Q91XP5); test: molecular brightness by raster image correlation spectroscopy
[2] = target: GlyR-α3L-eGFP (glycine receptor α3, long splice variant L, N-terminally tagged with eGFP) (mouse) (UniProt Q91XP5); test: subunit counting by stepwise photobleaching
[3] = target: the molecule itself; test: molecular brightness by raster image correlation spectroscopy
[4] = target: the molecule itself; test: subunit counting by stepwise photobleaching

| Molecule | N (α3L-eGFP subunits per heteropentamer, in a few cells) [1] | N (α3L-eGFP subunits per heteropentamer) [2] | heteropentameric fraction (fit with a 2nd order binomial) [2] | heteropentameric fraction (fit with a 3rd order binomial) [2] | heteropentameric fraction (fit with a 4th order binomial) [2] | stoichiometry N [3] | stoichiometry N [4] |
| --- | --- | --- | --- | --- | --- | --- | --- |
| GlyR-α3K-mCherry (glycine receptor α3, short splice variant K, N-terminally tagged with mCherry) | 1 | 2 to 4 | 23% | 36% | 67% | – | – |
| GlyR-α3L-eGFP (glycine receptor α3, long splice variant L, N-terminally tagged with eGFP) (receptor, mouse, UniProt Q91XP5 34-464, looked up) ARSRSAPMSPSDFLDKLMGRTSGYDARIRPNFKGPPVNVTCNIFINSFGSIAETTMDYRVNIFLRQKWNDPRLAYSEYPDDSLDLDPSMLDSIWKPDLFFANEKGANFHEVTTDNKLLRIFKNGNVLYSIRLTLTLSCPMDLKNFPMDVQTCIMQLESFGYTMNDLIFEWQDEAPVQVAEGLTLPQFLLKEEKDLRYCTKHYNTGKFTCIEVRFHLERQMGYYLIQMYIPSLLIVILSWVSFWINMDAAPARVALGITTVLTMTTQSSGSRASLPKVSYVKAIDIWMAVCLLFVFSALLEYAAVNFVSRQHKELLRFRRKRKNKTEAFALEKFYRFSDTDDEVRESRFSFTAYGMGPCLQAKDGVVPKGPNHAVQVMPKSPDEMRKVFIDRAKKIDTISRACFPLAFLIFNIFYWVIYKILRHEDIHQQQD | – | – | – | – | – | ~5 | 5 |

— publication doi:10.1101/2021.02.18.431627 (bioRxiv, 2021)
